The test system of data set [1] is CC(C)[C@@H]1NC(=O)[C@H](C)OC(=O)[C@@H](C(C)C)NC(=O)[C@@H](C(C)C)OC(=O)[C@H](C(C)C)NC(=O)[C@H](C)OC(=O)[C@@H](C(C)C)NC(=O)[C@@H](C(C)C)OC(=O)[C@H](C(C)C)NC(=O)[C@H](C)OC(=O)[C@@H](C(C)C)NC(=O)[C@@H](C(C)C)OC1=O. Description: (§1) TP_TRANSPORTER: ATP hydrolysis in reconstituted proteoliposomes. In kind it is functional, subcellular.
Data set [2] relates to CC[C@H]1CN2CCc3cc(OC)c(OC)cc3[C@@H]2C[C@@H]1C[C@H]1NCCc2cc(OC)c(OC)cc21. Described as §1. In kind it is functional, subcellular.

For one substance, Km results are on record in ChEMBL document CHEMBL2074001, “Competition of hydrophobic peptides, cytotoxic drugs, and chemosensitizers on a common P-glycoprotein pharmacophore as revealed by its ATPase activity” (J Biol Chem, 1996).

For orientation: Km means the concentration of substrate that gives half-maximal velocity. Consider “ATP-dependent translocase ABCB1 (Homo sapiens)”, for which the Km in data set [1] was 1 µM; in data set [2] it was 6 µM.
